The experiment concerns the target cyno CD98hc (cynomolgus monkey). As to the kind of experiment: SPR (Biacore). (In SPR one partner is held on a chip, and binding of the other changes the refractive index at the surface.)

In general, Kd refers to the equilibrium constant for the complex coming apart. With “LLB2.C.1 (from UniProt P0DOX5 233-449) (Fc fusion)”, the Kd stood at 1.5 µM. This counts as single-digit micromolar.

The values are drawn from patent US20250145729A1.
